Source: paper doi:10.1101/2021.12.16.472884

Columns and labels:
Assay in all cases: SEC
[1] = target: His6 tagged recombinant pNL4-3-derived IN R269A/K273A/D256R (HIV-1 (NL4-3))
[2] = target: His6 tagged recombinant pNL4-3-derived IN R262A/R263A/D256R (HIV-1 (NL4-3))
[3] = target: His6 tagged recombinant pNL4-3-derived IN R262A/R263A/D256N/D270N (HIV-1 (NL4-3))
[4] = target: His6 tagged recombinant pNL4-3-derived IN R269A/K273A/D256N/D270N (HIV-1 (NL4-3))

Substance: His6 tagged recombinant pNL4-3-derived IN R269A/K273A/D256R (enzyme)
- stoichiometry N [1]: 4

Substance: His6 tagged recombinant pNL4-3-derived IN R262A/R263A/D256R (enzyme)
- stoichiometry N [2]: 4

Substance: His6 tagged recombinant pNL4-3-derived IN R262A/R263A/D256N/D270N (enzyme)
- stoichiometry N [3]: 4

Substance: His6 tagged recombinant pNL4-3-derived IN R269A/K273A/D256N/D270N (enzyme)
- stoichiometry N [4]: 4
